From PMC5578738 (eLife, 2017)

Target: T1, Side-VI (CG34114) complete ectodomain, biotinylated (SPR) (Drosophila melanogaster, UniProt Q0KI85 1-1087, biotin on the biotin acceptor peptide (E. coli BirA))
T1 construct: Side-VI (CG34114), Drosophila, complete ectodomain; source: Trichoplusia ni High Five cells, baculovirus, secreted, purified (Ni-NTA, SEC)
T1 sequence (looked up): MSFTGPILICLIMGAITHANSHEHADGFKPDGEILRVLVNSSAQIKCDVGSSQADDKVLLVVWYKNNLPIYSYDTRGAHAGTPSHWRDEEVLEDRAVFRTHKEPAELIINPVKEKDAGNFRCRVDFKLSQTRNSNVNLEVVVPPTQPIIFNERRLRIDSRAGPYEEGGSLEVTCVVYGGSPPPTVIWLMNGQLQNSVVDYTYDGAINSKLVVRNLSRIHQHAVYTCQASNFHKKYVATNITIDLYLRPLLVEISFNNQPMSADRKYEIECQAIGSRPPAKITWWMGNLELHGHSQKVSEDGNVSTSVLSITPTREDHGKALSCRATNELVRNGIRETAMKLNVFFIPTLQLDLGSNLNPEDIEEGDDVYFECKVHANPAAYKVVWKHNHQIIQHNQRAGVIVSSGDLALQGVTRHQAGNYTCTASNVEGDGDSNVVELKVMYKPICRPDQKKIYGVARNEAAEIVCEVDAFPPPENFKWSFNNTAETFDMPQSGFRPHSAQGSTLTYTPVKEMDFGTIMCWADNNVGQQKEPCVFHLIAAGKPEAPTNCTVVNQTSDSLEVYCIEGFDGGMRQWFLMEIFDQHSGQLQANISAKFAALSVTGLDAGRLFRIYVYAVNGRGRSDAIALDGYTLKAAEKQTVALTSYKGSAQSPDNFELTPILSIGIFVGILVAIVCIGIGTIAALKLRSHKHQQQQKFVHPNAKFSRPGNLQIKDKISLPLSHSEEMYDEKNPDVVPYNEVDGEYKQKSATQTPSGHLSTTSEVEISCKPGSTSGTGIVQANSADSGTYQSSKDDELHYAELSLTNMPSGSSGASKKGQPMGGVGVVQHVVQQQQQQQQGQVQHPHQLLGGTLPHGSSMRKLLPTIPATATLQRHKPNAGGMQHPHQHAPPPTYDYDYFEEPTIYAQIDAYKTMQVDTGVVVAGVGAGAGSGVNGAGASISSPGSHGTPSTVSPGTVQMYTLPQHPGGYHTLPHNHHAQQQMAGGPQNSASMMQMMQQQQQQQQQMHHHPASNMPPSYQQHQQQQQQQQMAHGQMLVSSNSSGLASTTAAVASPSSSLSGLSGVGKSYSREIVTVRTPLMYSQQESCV
Test: SPR; Biacore T100; biotinylated Side-VI captured on an SA chip, Beat-Va or Beat-Vb flowed over; HBSp+ with 500 mM NaCl and 15% glycerol; equilibrium responses fitted to a Langmuir isotherm
Settings: both partners purified

Kd: 760 nM
koff: ≥ 0.5 s⁻¹
B1: Beat-Va complete ectodomain (SPR) (domain or fragment)
chain: LFVTDISVPEIVDFRDNVTLSCSYDMRGHTLNSVKWYKDHEEFFRYSPLTSPIYMTFDVAGLQVLEGKYVCNESSCRLDLSLQGAKSTGLYKCEVSGDAPHFKLADKADNMTVAALPQNDPLIESFNSMYRMEEYLKATCISDFSSLPTRLTWYINGEQPLLGELYPTTDTSLAAHDYVLRRQRLQVQFFLQGQRFFQAGKILELKCVAEIENYPELRREKTLSASLSQYDNFNNQMPLRHANANSGSAQRSILCGRTSLISAFLAAILLIHCLRRPS
